Experimental data taken from patent US8927207B2, “miRNAs as therapeutic targets in cancer” (Research Foundation of State University of New York, priority 2008, dated 2015).

Columns and labels:
[1] = system: p21; assay: western immunoblot of p21 in HCT-116 (wt-p53) and U-2 OS cells; format: cell-based; details: both HCT-116 (wt-p53) and U-2 OS cells, 48 h after transfection
Excerpt: (§1) miR-215 increases the expression of cell cycle control genes p53 and p21. p53 and p21, a downstream target of the p53 pathway of growth control, are reported to block cells at G2 checkpoint mainly through inhibiting activity of Cdc2, the cyclin-dependent kinase that normally drives cells into mitosis, which is the ultimate target of pathways that mediate rapid arrest in G2 in response to DNA damage. To further analyze the mechanism of cell proliferation inhibition by miR-215, we transfected miR-215 precursor into HCT-116 (wt-p53) and U-2 OS cells, and evaluated the levels of cell cycle control genes p53 and p21 by western immunoblot analysis.

[2] = system: p53; assay: western immunoblot of p53 in HCT-116 (wt-p53) and U-2 OS cells; format: cell-based; details: both HCT-116 (wt-p53) and U-2 OS cells, 48 h after transfection
Excerpt: as §1

[3] = system: DHFR mRNA; assay: real time qRT-PCR of DHFR mRNA; format: cell-based; details: U-2 OS cells
Protocol: Expression levels of TS or DHFR mRNA were analyzed using real time qRT-PCR analysis (FIG. 15).

[4] = system: DHFR protein; assay: Western immunoblot of DHFR protein after transfection; format: cell-based, human; details: HCT-116 (wt-p53)
Protocol: In this experiment, human colon cancer cell lines, HCT-116 (wt-p53), cells were transfected with miR-192 or miR-24. The cells were maintained in McCoy's 5A medium (Life Technologies). The media was supplemented with 10% dialyzed fetal bovine serum (Hyclone Laboratories). The cell line were grown at 37° C. in a humidified incubator with 5% CO2.
The HCT-116 (wt-p53) cells tranfected as follows. The cells (2×10^5) were plated in 6-well plates and transfected with 100 nmol/L of either miR-192 or miR-24 precursors or nonspecific control miR (Ambion) after 24 h with Oligofectamine (Invitrogen) according to the manufacturer's instructions.
At 48 hours after transfection with miR-192 or miR-24 precursors or nonspecific control miRNA, the cells were scraped and lysed in radioimmunoprecipitation assay buffer (Sigma). […] Horseradish peroxidase-conjugated antibodies against mouse or rabbit (1:1,000; Santa Cruz Biotechnology) were used as the secondary antibodies.

[5] = system: p53; assay: Western immunoblot of cell cycle control genes, HCT-116 (wt-p53); format: cell-based, human; details: 48 hours after transfection
Protocol: (§2) miR-192 expression is dependent on p53. To further analyze the cell cycle control genes involved in miR-192 overexpression, a number of cell cycle control genes were analyzed (p53, p21, Bax, E2F3, Rb). HCT-116 (wt-p53) cells (FIG. 6A) and RKO (wt-p53) cells (FIG. 6B), as described above (see Example 3), were transfected with non-specific miR (FIG. 6A, lane 2; and FIG. 6B, lane 1), DHFR siRNA (FIG. 6A, lane 3; and FIG. 6B, lane 2) and miR-192 (FIG. 6A, lane 4; and FIG. 6B, lane 3) according to the procedure discussed above (see Examples 1 and 2). Non-transfected HCT-116 (wt-p53) was used as a negative control (FIG. 6A, lane 1). Alpha-tubulin was used as a protein loading control.

[6] = system: Bax; assay: as above; format: cell-based, human; details: 48 hours after transfection
Protocol: as §2

[7] = system: p21; assay: as above; format: cell-based, human; details: 48 hours after transfection
Protocol: as §2

[8] = system: HCT-116 (wt-p53) cells; assay: WST-1 cell proliferation with MTX treatment after transfection; format: cell-based, human; details: 72 hours
Protocol: HCT-116 (wt-p53) cells were plated in 96-well plates at 1×10^3 cells/well in triplicate. They were transfected with miR-192 precursor (FIG. 3, lane 4), non-specific control miRNA (FIG. 3, lane 2), or siRNA against DHFR (FIG. 3, lane 3) in 100 μl of medium. […] Ten microliters of WST-1 (Roche Applied Science) was added to each well. After 2 hours of incubation, absorbance was measured at 450 and 630 nm respectively (n=3).

[9] = system: TS; assay: western immunoblot of TS protein after transfection; format: cell-based; details: 48 hours after transfection
Protocol: At 48 h after transfection with miR-215, miR-192 precursors or non-specific control miRNA, the cells were scraped and lysed in RIPA buffer (Sigma). Equal amounts of proteins were resolved by SDS-PAGE on 12% gels by the method of Laemmli, and transferred to polyvinylidene fluoride membranes (BIO-RAD Laboratories). The membranes were then blocked by 5% nonfat milk in TBS-T (Tris-buffered saline and 0.5% Tween-20) at room temperature for 1 h. The primary antibodies used for the analysis included mouse anti-TS mAb (1:400, Millipore), mouse anti-DHFR mAb (1:250, BD Bioscience), mouse anti-p53 mAb (1:1000, DO-1), mouse anti-p21 mAb (1:1000, F-5), and mouse anti-α-tubulin mAb (1:1000, TU-02) purchased from Santa Cruz Biotechnology. Horseradish peroxidase—conjugated antibodies against mouse (1:1000, Santa Cruz Biotechnology) were used as the secondary antibodies. Protein bands were visualized with a chemiluminescence detection system using the Super Signal substrate (BIO-RAD).
At 48 hours after transfection, proteins were extracted from miR-215-transfected cells and from control cells and changes in TS or DHFR protein levels were determined by western immunoblot analysis (FIG. 14).

[10] = system: E2F3; assay: Western immunoblot of E2F3, HCT-116 (wt-p53); format: cell-based, human
Protocol: The expression of miR-192 on the expression of E2F3 and Rb in HCT-116 (wt-p53) cells was also analyzed. In these experiments, HVT-116 (wt-p53) cells, as described above (see Example 3) were transfected with non-specific miR (FIG. 7, lane 2), DHFR siRNA (FIG. 7, lane 3) or miR-192 (FIG. 7, lane 4) according to the procedure described above (see Examples 1 and 2). One HCT-116 (wt-p53) sample was not transfected, and used as a negative control (FIG. 7, lane 1). Western immunoblot analysis was performed according to the procedure described above (see Example 5), except that rabbit anti-E2F-3 polyclonal antibody (1:1000, C-18) (Santa Cruz Biotechnology) was used.

B1: miR-192: microRNA miR-192 (SEQ ID NO:1), transfected into cells as miR-192 precursor (Ambion) (nucleic acid)
chain: GCCGAGACCGAGUGCACAGGGCUCUGACCUAUGAAUUGACAGCCAGUGCUCUCGUCUCCCCUCUGGCUGCCAAUUCCAUAGGUCACAGGUAUGUUCGCCUCAAUGCCAGC
modifications: delivered as precursor, further chemistry not given here
B1 was tested, and the p21 protein level [1] was “significant increase”, the p53 protein level [2] was “significant increase” and the “DHFR mRNA expression” value [3] was “no reduction”. The “expression of DHFR protein” value ([4]; 100 nmol/L precursor, 48 hours after transfection) was “clearly decreased”, the “potency for decreasing DHFR expression” value ([4]; compared with positive control miR-24) was “comparable to miR-24” and the “increase in expression of the p53 protein” value [5] was “over 10 fold”. The “expression of Bax” value [6] was “not altered”, the “increase in expression of p21” value [7] was 10 fold and the “effect in combination with MTX” value ([8]; MTX 25 nM) was “synergistic effect”. For the same molecule, the cell proliferation reduced ([8]; transfected cells in combination with MTX 25 nM) was ~70%, the TS protein levels [9] was “clearly decreases” and the “expression of E2F3” value [10] was “decreased expression”.
